Test results published in US20250019451A1 (published 2025).
Read-outs that look alike come from different tables or passages of the source.

T1: mouse CCR8 (UniProt P56484 1-353)
T1 chain: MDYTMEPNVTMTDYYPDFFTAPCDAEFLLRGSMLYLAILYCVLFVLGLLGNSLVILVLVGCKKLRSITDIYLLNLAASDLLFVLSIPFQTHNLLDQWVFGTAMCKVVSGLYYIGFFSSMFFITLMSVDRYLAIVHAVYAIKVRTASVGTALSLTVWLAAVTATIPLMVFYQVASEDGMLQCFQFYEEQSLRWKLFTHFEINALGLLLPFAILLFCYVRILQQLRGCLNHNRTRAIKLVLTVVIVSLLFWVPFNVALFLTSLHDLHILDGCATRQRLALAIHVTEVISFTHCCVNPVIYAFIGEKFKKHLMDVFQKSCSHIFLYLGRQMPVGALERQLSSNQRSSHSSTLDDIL

B1: HFB11-19 (antibody, V domains shown)
VH: QVQLQQSGAELVKPGASVKLSCKASGYTFTDYIIHWVKQRSGQGLEWIGWFSPRNNYVKYNERFTDKATLTADKSSNTVYMELSSLTSEDSAVYFCSRHGRNSIGFAYWGQGTLVTVSA
VL: DIVMTQAAPSVPVTPGESVSISCRSSKSLLNSNGNTYLYWFLQRPGQSPQLLIYRMSNLASGVPDRFSGSGSGTAFTLRISRVEAEDVGVYYCMQHLEYPYTFGGGTKLEIK
B2: HFB11-2 (antibody, V domains shown)
VH: EVQLVESGGGLVQPKGSLKLSCAASGFSFNTYAMNWVRQAPGKGLEWVARIRSKSNNYATYYADSVKDRFTISRDDSERMLYLQMNNLKTEDTAMYYCVRGGSYYSNHYFDYWGQGTTLTVSS
VL: DIVMTQAAPSVPVTPGESVSISCRSSKSLLHSNGNTYLYWFLQRPGQSPQLLIYQMSNLASGVPDRFSGSGSGTAFTLRISRVEAEDVGVYYCMQHLEYPFTFGAGTKLELK
B3: HFB11-10 (antibody, V domains shown)
VH: EVQLVETGGGLVQPKGSLKLSCAASGFRFNTNAMNWVRQAPGKDLEWVARIRSKSNNYATYYADSVKDRFTISRDDSQSMLYLQMNNVKTEDTAMYYCVRGSDNNYYYAMDYWGQGTSVTVSS
VL: DIVMTQAAPSVPVTPGESVSISCRSSKSLLHSNGNTYLYWFLQRPGQSPQLLIYRMSNLASGVPDRFSGSGSGTAFTLRISRVEAEDVGVYYCMQHLEYPFTFGSGTKLEIK
B4: HFB11-8 (antibody, V domains shown)
VH: EVQLVETGGGLVQPKGSLKLSCAASGFRFNTNAMNWVRQAPGKGLEWVARIRSKSNNYATHYVDSVKDRFTVSRDDSQSMLYLQMNNLKAEDTAMYYCVRGSDNNYYYAMDYWGQGTSVTVSS
VL: DIVMTQAAPSVPVTPGESVSISCRSSKSLLHSNGNTYLYWFLQRPGQSPQLLIYRMSNLASGVPDRFSGSGSGTSFTLRISRVEVEDVGVYYCMQHLEYPFTFGSGTKLEIK
B5: HFB11-10 parental antibody (non-humanized) in ADCC enhanced format (antibody, V domains shown)
VH: EVQLVETGGGLVQPKGSLKLSCAASGFRFNTNAMNWVRQAPGKDLEWVARIRSKSNNYATYYADSVKDRFTISRDDSQSMLYLQMNNVKTEDTAMYYCVRGSDNNYYYAMDYWGQGTSVTVSS
VL: DIVMTQAAPSVPVTPGESVSISCRSSKSLLHSNGNTYLYWFLQRPGQSPQLLIYRMSNLASGVPDRFSGSGSGTAFTLRISRVEAEDVGVYYCMQHLEYPFTFGSGTKLEIK
B6: HFB11-3 (antibody, V domains shown)
VH: EVQLVESGGGLVQPQGSLKLSCAASGFSFNTYAMNWVRQAPGKGLQWVARIRSKSNNYATYYADSVKDRFTISRDDSESMLYLQMNNLKTEDAAMYYCVRGKDANYFYAMDYWGQGTSVTVSS
VL: DIVMTQAAPSVPVTPGESVSISCRSSKSLLHSNGNTYLYWFLQRPGQSPQLLIYRMSNLASGVPDRFSGSGSGTAFTLRISRVEAEDVGVYYCMQHLEYPFTFGAGTKLELK
B7: HFB11-5 (antibody, V domains shown)
VH: EVQLVESGGGLVQPRGSLKLSCTASGFSFNAYAMNWVRQAPGKGLEWVARIRTKSNNYATYYADSVKDRFTISRDDSESMLYLQMKNLKTEDTAMYYCVRGGYGNGGYYFDYWGQGTTLTVSS
VL: DIVMTQAAPSVTVTPGESASISCRSSKSLLHRNGNSYLYWFLQRPGQSPQLLIYRISNLASGVPDRFSGSGSGTAFTLRISRVEAEDVGVYYCMQHLEYPFTFGSGTKLEIK
B8: HFB11-21 (antibody, V domains shown)
VH: QVQLQQPGAELVKPGASVKLSCKASGYTFISYWMHWVKQRPGRGLEWIGRIDPNSGKTKYNEKFKTKATLTVDKSSSTAYMHLNSLTSDDSAVYYCAREGWGDYWGQGTTLTVSS
VL: DIVLTQSPASLAVSLGQRATISCRASESVDNYGISFMHWYQQKPGQPPRLLIYRASNLASGIPARFSGSGSSTDFTLTINPVETDDIATYYCQQSNKDPRTFGGGTKLEIK

How the values were obtained:
human CCR8 [1] = target: T2, human CCR8 (UniProt P51685 1-355); test: FACS cell binding
mouse CCR8 = target: T1, mouse CCR8; test: FACS cell binding
human CCR8 [2] = target: T2, human CCR8; test: CCL1 blocking
human CCR8 [3] = target: T2, human CCR8; test: CCL1 blocking; remark: listed apart in the source
human CCR8 [4] = target: T2, human CCR8; test: FACS cell binding; remark: listed apart in the source

| Binder | EC50 (human CCR8 [1]) | EC50 (mouse CCR8) | IC50 (human CCR8 [2]) | IC50 (human CCR8 [3]) | EC50 (human CCR8 [4]) |
| --- | --- | --- | --- | --- | --- |
| B1 | 0.86 nM | – | – | – | – |
| B2 | 0.98 nM | 0.4 nM | 1.33 nM | – | – |
| B3 | 0.57 nM | – | 0.428 nM | 0.428 nM | – |
| B4 | 0.53 nM | – | 0.452 nM | – | – |
| B5 | – | – | – | – | 0.37 nM |
| B6 | 1.63 nM | – | 1.3 nM | – | – |
| B7 | 0.49 nM | – | 0.413 nM | – | – |
| B8 | 9.05 nM | – | – | – | – |
